# Test results published in US20190055547A1.
# B1: Clone D3 (designed binder, not shown: large carriers; small tags and cut ends)
# chain: EQKLISEEDLMAVSDVPRKLEVVAATPTSLLISWDAPWKKTRYYRITYGETGGNSPVQEFTVPGSKSTATISGLKPGVDYTITVYAVTASWPWSKPISINYRTSGGGGSGGGGSGGGGSGGGGSGGGGSDYKDDDDKLASAMAVSDVPRKLEVVAATPTSLLISWDAPSRHIYYYRITYGETGGNSPVQEFTVPGSKSTATISGLKPGVDYTITVYAVTDLYSNSKPISINYRTS
# How the values were obtained:
# [1] = molecular target: Pak1 (UniProt Q13153); assay: competitive phage ELISA IC50 compared with KD (~IC50) of primary-screen monobodies
# [2] = molecular target: Pak1 (UniProt Q13153); assay: competitive phage ELISA: biotinylated Pak1 immobilised, varying non-biotinylated Pak1 mixed with phage displaying D3
binder,measurement,setting,value
B1,fold improvement over the binding of the monobodies from the primary screen,[1],1000 fold
same,IC50,[2],1.5 nM
